Biological target: amino-terminal hexahistidine-tagged EttA-EQ2 (E. coli) (UniProt P0A9W3)
Experiment: pull-down

E. coli 70S ribosome (from UniProt P0A7L0 1-234; P62399 1-179; P0A7N9 1-55; P02359 1-179; P0A7R1 1-149) (complex)
stoichiometry N (EttA-EQ2:70S ribosome): 1

From article PMC4143144
